Results published in US20180022794A1 (INSERM INSTITUT NATIONAL DE LA SANTE ET DE LA RECHERCHE …, published 2018).

B1: 4SNP61 hs2dAb (VHH)
VHH: VQLQASGGGFVQPGGSLRLSCAASGFTSTSTVMGWFRQAPGKEREFVSAISSAHTMDTYYADSVKGRFTISRDNSKNTVYLQMNSLRAEDTATYYCAPAPMLGQMITQPALPYWGQGTQVTVSS
B2: 5SNP48 hs2dAb (VHH)
VHH: VQLQASGGGFVQPGGSLRLSCAASGTSWFTEVMGWFRQAPGKEREFVSAISGLHDVGTYYADSVKGRFTISRDNSKNTVYLQMNSLRAEDTATYYCAALDKWYTKAMDARKDYWGQGTQVTVSS
B3: 5SNP65 hs2dAb (VHH)
VHH: VQLQASGGGFVQPGGSLRLSCAASGATYEGEAMGWFRQAPGKEREFVSAISSYPSVISYYADSVKGRFTISRDNSKNTVYLQMNSLRAEDTATYYCAYWVNHEGTIREIYWGQGTQVTVSS
B4: B6 hs2dAb (VHH)
VHH: VQLQASGGGFVQPGGSLRLSCAASGYGSTIETMGWFRQAPGKEREFVSAISRAPGPSQYYADSVKGRFTISRDNSKNTVYLQMNSLRAEDTATYYCAPINNRTMQDSMFLWNYWGQGTQVTVSS
notes: also called hs2dAb B6
B5: H12 hs2dAb (VHH)
VHH: VQLQASGGGFVQPGGSLRLSCAASGDGSRIYAMGWFRQAPGKEREFVSAISWEQDWEHYYADSVKGRFTISRDNSKNTVYLQMNSLRAEDTATYYCAAFMTPHRNLTSMYWGQGTQVTVSS
notes: Humanized synthetic single domain antibody; Soluble form was used in ELISA and immunofluorescence and detected through a myc tag; also called clone H12; H12 antibody

biological target: T1, RhoC Q63L (UniProt P08134 1-190, limits assumed); assay: binding kinetics, method not stated (Table 1)
T1 construct: also called RhoC Q63L (2SHA); constitutively active RhoC mutant
T1 sequence (P08134 1-190 Q63L limits assumed): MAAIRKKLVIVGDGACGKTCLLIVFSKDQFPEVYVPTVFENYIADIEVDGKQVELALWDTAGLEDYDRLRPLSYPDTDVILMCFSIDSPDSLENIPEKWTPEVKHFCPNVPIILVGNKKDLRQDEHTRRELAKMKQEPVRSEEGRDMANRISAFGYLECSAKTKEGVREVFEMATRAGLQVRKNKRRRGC

| Kd | koff | kon | Binder |
| --- | --- | --- | --- |
| 5.3 nM | 0.0046 s⁻¹ | 875000 M⁻¹ s⁻¹ | B1 |
| 0.524 nM | 0.000901 s⁻¹ | 1.72e+06 M⁻¹ s⁻¹ | B2 |
| 0.608 nM | 0.001 s⁻¹ | 1.71e+06 M⁻¹ s⁻¹ | B3 |
| 2.32 nM | 0.000625 s⁻¹ | 1.45e+06 M⁻¹ s⁻¹ | B4 |

biological target: T2, RhoA Q63L (UniProt P61586 1-190, limits assumed); assay: binding kinetics, method not stated (Table 1)
T2 construct: also called RhoA Q63L (2SHA); constitutively active RhoA mutant
T2 sequence (P61586 1-190 Q63L limits assumed): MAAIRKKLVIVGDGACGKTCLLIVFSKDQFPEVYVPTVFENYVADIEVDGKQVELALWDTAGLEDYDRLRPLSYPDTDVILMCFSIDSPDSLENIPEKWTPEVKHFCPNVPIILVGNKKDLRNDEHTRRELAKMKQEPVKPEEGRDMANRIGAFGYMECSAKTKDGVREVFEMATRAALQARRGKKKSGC

| Kd | koff | kon | Binder |
| --- | --- | --- | --- |
| 1.21 nM | 0.0013 s⁻¹ | 1.1e+06 M⁻¹ s⁻¹ | B1 |
| 0.84 nM | 0.000686 s⁻¹ | 814000 M⁻¹ s⁻¹ | B2 |
| 0.6 nM | 0.000522 s⁻¹ | 870000 M⁻¹ s⁻¹ | B3 |
| 1.31 nM | 0.0008 s⁻¹ | 1.05e+06 M⁻¹ s⁻¹ | B4 |

biological target: Rac Q61L (UniProt P63000 1-189); assay: binding kinetics, method not stated (Table 1)

| Kd | koff | kon | Binder |
| --- | --- | --- | --- |
| 0.33 nM | 0.000255 s⁻¹ | 753000 M⁻¹ s⁻¹ | B5 |

biological target: T3, RhoB Q63L (UniProt P62745 1-193, limits assumed); assay: binding kinetics, method not stated (Table 1)
T3 construct: also called RhoB Q63L (2SHA); constitutively active RhoB mutant
T3 sequence (P62745 1-193 Q63L limits assumed): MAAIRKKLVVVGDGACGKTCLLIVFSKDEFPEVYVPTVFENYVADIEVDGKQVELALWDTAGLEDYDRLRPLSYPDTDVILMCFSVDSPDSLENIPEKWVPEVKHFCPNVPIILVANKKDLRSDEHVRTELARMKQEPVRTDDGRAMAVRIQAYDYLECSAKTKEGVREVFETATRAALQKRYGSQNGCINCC

| Kd | koff | kon | Binder |
| --- | --- | --- | --- |
| 4.68 nM | 0.0033 s⁻¹ | 722000 M⁻¹ s⁻¹ | B1 |
| 5.21 nM | 0.0024 s⁻¹ | 462000 M⁻¹ s⁻¹ | B2 |
| 1.57 nM | 0.000359 s⁻¹ | 224000 M⁻¹ s⁻¹ | B5 |
| 2.36 nM | 0.000599 s⁻¹ | 253000 M⁻¹ s⁻¹ | B3 |
